# WO2014065403A1 (dated 2014)
# T1: cynomolgus monkey CD40 (cynomolgus monkey, UniProt P25942 21-277 (human entry))
# T1 construct: Stably expressed on CHO cells (pCXN3 vector); also called cynomolgus CD40
# T1 chain: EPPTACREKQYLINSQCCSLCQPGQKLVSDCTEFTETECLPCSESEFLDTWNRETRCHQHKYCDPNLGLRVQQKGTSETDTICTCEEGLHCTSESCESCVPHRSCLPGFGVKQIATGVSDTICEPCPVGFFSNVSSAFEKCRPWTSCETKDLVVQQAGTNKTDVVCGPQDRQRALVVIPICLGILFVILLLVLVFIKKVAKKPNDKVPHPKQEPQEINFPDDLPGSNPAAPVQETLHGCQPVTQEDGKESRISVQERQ
# T2: mouse CD40 (mouse, UniProt P27512 20-289)
# T2 construct: Stably expressed on CHO cells (pCXN3 vector)
# T2 sequence: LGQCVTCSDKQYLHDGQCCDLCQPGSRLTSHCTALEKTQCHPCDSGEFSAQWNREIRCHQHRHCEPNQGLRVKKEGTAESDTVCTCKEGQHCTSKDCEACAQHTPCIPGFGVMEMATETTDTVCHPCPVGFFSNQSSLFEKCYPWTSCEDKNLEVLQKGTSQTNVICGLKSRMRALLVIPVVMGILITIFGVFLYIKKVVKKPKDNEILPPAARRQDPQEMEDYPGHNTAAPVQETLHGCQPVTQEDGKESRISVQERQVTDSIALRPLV
# What was measured:
# [1] = target: T3, partial length CD40 from CD40 amino acid residue 78 onward (human, UniProt P25942 78-277); assay: FACS on 293T cells transiently expressing partial length CD40
# T3 construct: also called D2B1 (by its position in the series D1, D1B2, D2, D2B1, D3, D4); not shown: VSV-G tag added at the C-terminus
# [2] = target: T4, partial length CD40 D2 (expressed from the 62nd amino acid of CD40) (human, UniProt P25942 62-277); assay: FACS at 1 ug/mL on 293T cells transiently expressing partial length CD40
# T4 construct: not shown: VSV-G tag added at the C-terminus
# [3] = target: T5, partial length CD40 from CD40 amino acid residue 146 onward (human, UniProt P25942 146-277); assay: FACS on 293T cells transiently expressing partial length CD40
# T5 construct: also called D4 (by its position in the series D1, D1B2, D2, D2B1, D3, D4); not shown: VSV-G tag added at the C-terminus
# [4] = target: T6, partial length CD40 D3 (expressed from the 105th amino acid of CD40) (human, UniProt P25942 105-277); assay: FACS at 1 ug/mL on 293T cells transiently expressing partial length CD40
# T6 construct: not shown: VSV-G tag added at the C-terminus
# cynomolgus monkey CD40 = target: T1, cynomolgus monkey CD40; assay: FACS on CHO cells expressing cynomolgus monkey CD40
# mouse CD40 = target: T2, mouse CD40; assay: FACS on CHO cells expressing mouse CD40
binding result [1],binding result [2],binding result [3],binding result [4],binding result (cynomolgus monkey CD40),binding result (mouse CD40),Binder
no binding (tested: 1 μg/mL),binds,,,,,"antibody of SEQ ID NOs: 28 and 53 (antibody, V domains shown, clone name not tied; The text speaks of the mature part of these entries) VH: EVQLQQSGAELVKPGASVKLSCTGSGFNIKDTYMHWVKQRPEQGLEWIGRIDPANGNTKFDPKFQGKATITADTSTNTAYLQVSSLTSEDTAVYYCVRYGYDGYFDYWGQGTTLTVSS VL: QIVLTQSPAIMSASPGEKVTMTCSVSSSISYMYWYQQKPGTSPKRWIYDTSKLASGVPARFSGSGSGTSYSLTISSMEAEDAATYYCHQRSSYPLTFGAGTKLELK"
,,no binding (tested: 1 μg/mL),binds,,,"antibody of SEQ ID NOs: 8 and 33 (antibody, V domains shown, clone name not tied; The text speaks of the mature part of these entries) VH: EVQLQQSGPELVKPGASVKMSCKASGYTFTNYVMHWVKQKPGQGLEWIGYVNPYNDDTNYNERFKGKATLTSDKSSSTAYMELSSLTSEDSAVYYCARELTGTYWGQGTLVTVSA VL: DIVMTQAAPSVPVTPGESVSISCRSSKSLLHSNGNTYLYWFLQRPGQSPQLLISRISNLASGVPDRFSGSGSGTAFTLRISRVEAEDVGVYYCMQHVEYPFTFGSGTKLEIK"
,,no binding (tested: 1 μg/mL),binds,,,"antibody of SEQ ID NOs: 16 and 41 (antibody, V domains shown, clone name not tied; The text speaks of the mature part of these entries) VH: EVQLQQSGPELVKPGASVKMSCKASGYTFINYVIHWVKQKPGQGLEWIGYINPYNDDSNYNEKFKGKATLTSDKSSSTAYMELRSLTSEDSAIYYCARDLIGSYWGQGTTLTVSS VL: DIVMTQAAPSVIVTPGESVSISCRSSKSLLHSNGNTYFYWFLQRPGQSPQLLISRISNLASGVPDRFSGSGSGTAFTLRISRVEAEDVGIYYCMQHLEYPFTFGAGTKVELK"
,,no binding (tested: 1 μg/mL),binds,binds,no binding,"mouse antibody PPAT-071-04 (antibody, V domains shown, Mouse monoclonal IgG from ascites; also called hybridoma NITE BP-01435) VH: EVQLQQSGPELVKPGASMKISCKASGYSFADYTMNWVKQSHGKKLEWIGLINPYNGGTSYNQKFKDKATLTVDKSSSTAYMELLSLTTEDSAVYYCAEGVNNFADWGQGTTLTVSG VL: DIVLTQSPTSLAVFLGQRATISCRASKSVSTSGYSYMHWYQQKPGQSPKPLIYLASNLESGVPARFSGSGSGTDFTLNIHPVEEEDAATYYCQHSRELPRTFGGGTKLEIK"
no binding (tested: 1 μg/mL),binds,,,,,"antibody of SEQ ID NOs: 12 and 37 (antibody, V domains shown, clone name not tied; The text speaks of the mature part of these entries) VH: EVQLQHSGAELVKPGSSVKLSCTASDFNIKDAYMHWVKQRPEQGLEWIGRIDPANGKTKYDPKFQDKATITADTSSNTAYLQLNSLTSEDTAVYYCPRNYYGSRYGYFDVWGAGTTVTVSS VL: QIVLTQSPAILSASPGEKVTITCSASSSVDYMFWFQQKPGTSPKLWIYTTSNLASGVPTRFSGSGSGTSYSLTISRMEAEDAATYYCHQRSSYPLTFGAGTKLELK"
no binding (tested: 1 μg/mL),binds,,,,,"antibody of SEQ ID NOs: 13 and 38 (antibody, V domains shown, clone name not tied; The text speaks of the mature part of these entries) VH: EVQLQQSGAELVKPGASVKLSCTASGFNIKDSYIHWVKQRPEQGLEWIGRIDPANGNTKYDPKFQGKATITSDTSSSTAYLQLTSLTSEDTAVYYCPRNYYGSTYGYFDVWGAGTTVTVSS VL: QIVLTQSPAIMSASPGEKVTITCSASSSVSNMHWFQQKAGTSPKLWIYRTSNLASGVPARFSGSGSGTSYSLTISRMEAEDAATYYCQQGSSYPLTFGAGTKLELK"
,,no binding (tested: 1 μg/mL),binds,,,"antibody of SEQ ID NOs: 15 and 40 (antibody, V domains shown, clone name not tied; The text speaks of the mature part of these entries) VH: QVQLQQSGAELARPGASLKMSCKASGYTFTSYTIHWIKQRPGQGLEWIGYINPSSGYTNDNQKFKDKATLTADKSSTTAYMQLSSLTSEDSAVYYCARLGRPFDYWGQGTTLTVSS VL: EIVLTQSPALMAASPGEKVTITCSVSSSISSSNLHWYQQKSETSPKPWIYGTSNLASGVPVRFSGSGSGTSYSLTISSMEAEDAATYYCQQWSTYPLTFGSGTKLEIK"
